Assay results reported in doi:10.1101/2024.09.28.615595.

Target: CsrA (Escherichia coli (K-12 MG1655?)) (UniProt P69913)
Assay: EMSA
Conditions: binding buffer, pH and temperature not given

CsrA (Escherichia coli (K-12 MG1655?)), sequence (P69913 whole entry): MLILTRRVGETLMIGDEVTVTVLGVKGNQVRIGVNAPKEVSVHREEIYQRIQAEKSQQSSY

Row | Sequence | binding | K half [nM]
1 | GGGAGAACGGUUAACUUAACGGAUGUUUCGCGGUGUGGGUGAGCAUGAUGGUUCACCGGCAUCUCAAUUCUCAUUUAAACGUACCUGCAGCGAAUGAAUACUGAAGCCACGCACGACCAAAAUGAAGCACUUACUACCGGCGCUCGCCUGCGUAAUGCUCGCGAACAACUAGGACUUAGUCAGCAGGCCGUUG [rodZ leader] | binds | 
2 | GGGAGAUUUGUGUUUAUCCCGAUUUUCGCGAUCGCAGCCGGAGUGGCGCAAUCCCUGCAAUACUUAAAUCGGUAUCAUGUGAUACGCGAGCCUCCGGAGCAUAUUUUGAACAGGUUACCUUCGAGCGCAUCGGCUUUAGCGUGCAGCGCCCACGCCCUGAAUCUCAUUGAGAAGCGAACGCUGGAUCAUGAGGAGAUGAAAGCAC [patA leader] | binds | 
3 | GGGAGGUAAUUUUGGUUUUCCCGGCCAAAAAUGGACAAUAACCACCAGGAAAAGGAGACGGAAUGCAUCACGCCACCCCGCUUAUCACCACCAUUGUUGGCGGCCUUGUGCUCGCCUUUAUCCUCGGCAUGCUGGCCAAUAAACUACGUAUUUCUCCUCUGG [ybaL leader] | binds | 
4 | GGGAGGUUUGCUUUUAGGUUAGCGACCGAAAAUAUAAAUGAUAAUCAUUAUUAAAGCCUUUAUCAUUUUGUGGAGGAUGAUAUGGAUACGUCACUGGCUGAGGAAGUACAGCAGACCAUGGCAACACUUGCGCCCAAUCGCUUUUUCUUUAUGUCGCCGUACCGCAGUUUUACGACGUCAG [entC leader] | binds | 
5 | GGGAUAAUGCGCUUUCUUUAGCCGUUAAUAUCCACCGGCAUGGCUGCGCGCCGUGCCGGUUCCUUCUUGCUUGGCGUCACUCUUUGAAGACGCAUUCUGCAGUUUACGAUGACUACUAUUGUUGACAGCAAUCUGCCGGUUGCCCGCCCGUCAUGGGAUCAUUCUCGUCUGGAAUCACGCAUUGUGCAUCUCGGUUGCGGGGCGUUUCGCAUGC [uxuB 5' UTR mutant (UPSTR mut)] |  | 144
